Test results from article PMC4498786, “Dimerization-Induced Allosteric Changes of the Oxyanion-Hole Loop Activate the Pseudorabies Virus Assemblin pUL26N, a Herpesvirus Serine Protease” (PLoS Pathogens, 2015).

Columns and labels:
[1] = biological target: the molecule itself; assay: small-angle X-ray scattering (SAXS)
[2] = biological target: the molecule itself; assay: crystal structure

B1: pseudorabies virus (PrV) assemblin pUL26N, protease domain of pUL26, residues 1-224 (enzyme)
chain: MGPVYVSGYLALYDRDGGELALTREIVAAALPPAGPLPINIDHRPRCDIGAVLAVVDDDRGPFFLGVVNCPQLGAVLARAVGPDFFGDMRLSDEERLLYLLSNYLPSASLSSRRLAPGEAPDETLFAHVALCVIGRRVGTIVVYDASPEAAVAPFRQLSARARSELLARAAESPDRERVWHMSEEALTRALLSTAVNNMLLRDRWELVAARRREAGVRGHTYLQ
notes: also called PrV protease; VP24
- stoichiometry N [1]: 2

B2: diisopropyl fluorophosphate-inhibited pseudorabies virus (PrV) assemblin pUL26N, residues 1-224 (enzyme)
chain: B1 chain
- stoichiometry N [2]: 2
